T1: Utp14-G (aa 710–800), fusion to maltose binding protein (Saccharomyces cerevisiae, UniProt Q04500 710-800)
T1 construct: Purified as a fusion to MBP; the tag is cleavable with TEV protease but no cleavage is described; source: E. coli Codon+ BL21 (DE3) RIL (AJE854), purified (HisTrap HP, HiTrap Q HP); not shown: MBP, N-terminal, kept
T1 sequence (looked up): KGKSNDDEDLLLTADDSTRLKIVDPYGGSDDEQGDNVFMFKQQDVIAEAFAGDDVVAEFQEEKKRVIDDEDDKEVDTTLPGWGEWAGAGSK


Molecular target: T1, Utp14-G (aa 710–800), fusion to maltose …
Experiment: mass photometry; Dhr1 variant and Utp14-G mixed at a 1:1 ratio; TwoMP instrument, room temperature (25.3 °C); 40 mM Tris–HCl pH 8.0, 40 mM KCl, 150 mM NaCl, 2 mM NaOAc, 2 mM DTT, 10 mM MgCl2, 4% glycerol
Details: both partners purified

| percent complex [%] | Binder |
| --- | --- |
| 48 | ΔN-Dhr1-ΔSKTTD (domain or fragment, Saccharomyces cerevisiae, UniProt Q04217 376-1267, looked up, Dhr1 (Ecm16) of Saccharomyces cerevisiae, residues 1-375 deleted and the five residues SKTTD (aa 666-670) of loop 1 deleted; also called ΔN-ΔSKTTD; ΔNΔSKTTD; source: E. coli Codon+ BL21 (DE3) RIL (AJE854), purified (HisTrap FF, HiTrap Capto SP)) VEVSRSDEIQKARIQLPVFGEEHKIMEAIHHNDVVIICGETGSGKTTQVPQFLYEAGFGAEDSPDYPGMVGITQPRRVAAVSMAERVANELGDHGHKVGYQIRFDSTAKEDTKVKFMTDGVLLREMMHDFKLTKYSSIIIDEAHERNINTDILIGMLSRCVRLRAKLHKENPIEHKKLKLIIMSATLRVSDFSENKTLFPIAPPVLQVDARQFPVSIHFNRRTAFNYTDEAFRKTCKIHQKLPPGAILVFLTGQQEITHMVKRLRKEFPFKKNSKYNKDLETPVSKMGINLEAEDIDFSVQVIDQDKFKSAIRYEEDEGNSGNGEDEEDEEEEGFEEVLTEGQTANDPLYVLPLYSLLPTKEQMRVFQKPPQGSRLCIVATNVAETSLTIPGVRYVVDSGRSKERKYNESNGVQSFEVGWVSKASANQRSGRAGRTGPGHCYRLYSSAVFEHDFEQFSKPEILRMPVESIVLQMKSMAIHNIINFPFPTPPDRVALSKAIQLLQYLGALDNKEMITEDGKKMSLFPLSPRFSKMLLVSDEKACLPYIVAIVSALSVGDPFINEFELGINEISRKPNPDENLDDKIREHDESTPGMDPELKKELRSKFYKSRSQFSKLDKFSDVFRLLSVVSAMDYVPKEQKEIFMKKNFLRGKLMEEIVKLRKQLMYIIKSNTSKENIAVVIRNEDLKSDIPSVIQIKLLKQMICAGFVDHVAVRADVLFPDDAKITNRTSIINIPYIPVLATRTPNIEDCFVYIHPTSILNNLGEMPPKYMLYYSLHLGGNNKTRMNTLCDIASTPLANIARKGLLLTYSKPLTGQGLKTVNLSPTERYCYVVPRFGSTVDNDLKIGWDLNPIAVHQKKQKGQWTVIKFITRKGFQTITGEEKEKK |
| 23 | ΔN-Dhr1-WT (Δ1 to 375-Dhr1) (domain or fragment, Saccharomyces cerevisiae, UniProt Q04217 376-1267, looked up, Dhr1 (Ecm16), DEAH/RHA RNA helicase of Saccharomyces cerevisiae, residues 1-375 deleted; Cloned into pET21a(+) with a C-terminal Hisx6 tag; also called ΔN-WT; dhr1-Δ1–375 (ΔN); source: E. coli Codon+ BL21 (DE3) RIL (AJE854), purified (HisTrap FF, HiTrap Capto SP)) VEVSRSDEIQKARIQLPVFGEEHKIMEAIHHNDVVIICGETGSGKTTQVPQFLYEAGFGAEDSPDYPGMVGITQPRRVAAVSMAERVANELGDHGHKVGYQIRFDSTAKEDTKVKFMTDGVLLREMMHDFKLTKYSSIIIDEAHERNINTDILIGMLSRCVRLRAKLHKENPIEHKKLKLIIMSATLRVSDFSENKTLFPIAPPVLQVDARQFPVSIHFNRRTAFNYTDEAFRKTCKIHQKLPPGAILVFLTGQQEITHMVKRLRKEFPFKKNSKYNKDLETPVSKMGINSKTTDLEAEDIDFSVQVIDQDKFKSAIRYEEDEGNSGNGEDEEDEEEEGFEEVLTEGQTANDPLYVLPLYSLLPTKEQMRVFQKPPQGSRLCIVATNVAETSLTIPGVRYVVDSGRSKERKYNESNGVQSFEVGWVSKASANQRSGRAGRTGPGHCYRLYSSAVFEHDFEQFSKPEILRMPVESIVLQMKSMAIHNIINFPFPTPPDRVALSKAIQLLQYLGALDNKEMITEDGKKMSLFPLSPRFSKMLLVSDEKACLPYIVAIVSALSVGDPFINEFELGINEISRKPNPDENLDDKIREHDESTPGMDPELKKELRSKFYKSRSQFSKLDKFSDVFRLLSVVSAMDYVPKEQKEIFMKKNFLRGKLMEEIVKLRKQLMYIIKSNTSKENIAVVIRNEDLKSDIPSVIQIKLLKQMICAGFVDHVAVRADVLFPDDAKITNRTSIINIPYIPVLATRTPNIEDCFVYIHPTSILNNLGEMPPKYMLYYSLHLGGNNKTRMNTLCDIASTPLANIARKGLLLTYSKPLTGQGLKTVNLSPTERYCYVVPRFGSTVDNDLKIGWDLNPIAVHQKKQKGQWTVIKFITRKGFQTITGEEKEKK |
| 16 | ΔN-Dhr1-YCK (RecA2 surface mutant) (domain or fragment, Saccharomyces cerevisiae, UniProt Q04217 376-1267, looked up, Dhr1 (Ecm16) of Saccharomyces cerevisiae, residues 1-375 deleted, with three mutations on the RecA2 surface; also called ΔN-Dhr1-RecA2; ΔN-Dhr1-RecA2-mutants; source: E. coli Codon+ BL21 (DE3) RIL (AJE854), purified (HisTrap FF, HiTrap Capto SP)) VEVSRSDEIQKARIQLPVFGEEHKIMEAIHHNDVVIICGETGSGKTTQVPQFLYEAGFGAEDSPDYPGMVGITQPRRVAAVSMAERVANELGDHGHKVGYQIRFDSTAKEDTKVKFMTDGVLLREMMHDFKLTKYSSIIIDEAHERNINTDILIGMLSRCVRLRAKLHKENPIEHKKLKLIIMSATLRVSDFSENKTLFPIAPPVLQVDARQFPVSIYFNCRTAFNYTDEAFRKTCKIHQKLPPGAILVFLTGQQEITHMVKRLRKEFPFKKNSKYNKDLETPVSKMGINSKTTDLEAEDIDFSVQVIDQDKFKSAIRYEEDEGNSGNGEDEEDEEEEGFEEVLTEGQTANDPLYVLPLYSLLPTKEQMRVFQKPPQGSRLCIVATNVAETSLTIPGVRYVVDSGRSKERKYNESNGVQSFEVGWVSKASANQRSGRAGRTGPGHCYRLYSSAVFKHDFEQFSKPEILRMPVESIVLQMKSMAIHNIINFPFPTPPDRVALSKAIQLLQYLGALDNKEMITEDGKKMSLFPLSPRFSKMLLVSDEKACLPYIVAIVSALSVGDPFINEFELGINEISRKPNPDENLDDKIREHDESTPGMDPELKKELRSKFYKSRSQFSKLDKFSDVFRLLSVVSAMDYVPKEQKEIFMKKNFLRGKLMEEIVKLRKQLMYIIKSNTSKENIAVVIRNEDLKSDIPSVIQIKLLKQMICAGFVDHVAVRADVLFPDDAKITNRTSIINIPYIPVLATRTPNIEDCFVYIHPTSILNNLGEMPPKYMLYYSLHLGGNNKTRMNTLCDIASTPLANIARKGLLLTYSKPLTGQGLKTVNLSPTERYCYVVPRFGSTVDNDLKIGWDLNPIAVHQKKQKGQWTVIKFITRKGFQTITGEEKEKK |

Reference: paper PMC11994318, “In vitro characterization of the yeast DEAH/RHA RNA helicase Dhr1” (The Journal of Biological Chemistry, 2025)
